{"source": "patent US12331106B2", "about": "“Anti-angiopoietin-2 antibodies that induce Tie2 activation” (Institute for Basic Science, priority 2018, dated 2025)", "molecules": {"B1": {"name": "2C8H11: humanized anti-Ang2 human IgG1 antibody from mouse 2C8; VH SEQ ID NO: 55, VL SEQ ID NO: 56 (antibody, V domains shown)", "VH": "QVQLVQSGAEVKKPGASVKVSCKASGYTFTSYWMHWVRQAPGQGLEWMGMIDPSDSETRLNQKFKDRVTMTRDTSTSTVYMELSSLRSEDTAVYYCARRFYYGSDWYFDVWGQGTLVTVSS", "VL": "DIQLTQSPSFLSASVGDRVTITCKASQDVGTAVAWYQQKPGKAPKLLIYWASTRHTGVPSRFSGSGSGTEFTLTISSLQPEDFATYYCQQYSSYPLTFGQGTKVEIK", "modifications": "human IgG1 constant regions; VH; VL"}}, "key": {"[1]": {"system": "HUVEC monolayer", "assay": "In vitro vascular permeability (leakage) assay, TNF-α induced, FITC-dextran", "format": "cell-based, human", "conditions": "HUVECs; pre-treatment antibody 1 μg/ml with Ang2 1 μg/ml 30 min; TNF-α 100 ng/ml 22 hr", "method": "Vascular leakage assay was carried out in HUVECs using In Vitro Vascular Permeability Assay Kit (Millipore®) according to the manufacturer's instruction. HUVECs were seeded into the insert of the transwell plate and cultured for 3 days for 100% confluence. The HUVECs were pre-incubated with Ang2 (1 μg/ml), Ang2 (1 μg/ml) together with Control, 2C8H11 or 4B9H11 antibody (1 μg/ml) for 30 min, and then TNF-α (100 ng/ml) was added, and the cells were incubated at 37° C. for 22 hr. FITC-dextran was added to the upper chamber and incubated for 20 min. Passage of FITC-dextran though the HUVEC monolayer was measured by a fluorescence reader at excitation and emission wavelengths of 485 and 535 nm, respectively."}, "[2]": {"system": "Tie2 receptor clustering / FOXO1 translocation in HUVECs", "assay": "Tie2 clustering and FOXO1 translocation in HUVECs (immunofluorescence)", "format": "cell-based, human", "method": "Tie2 clustering at cell-cell junction area and FOXO1 translocation from nucleus to cytosol by anti-Ang2 antibodies were examined in HUVECs by immunofluorescence. Specifically, HUVECs were seeded on 8 well slide chamber (Lab-Tek™ II) and maintained in EGM-2 medium for 2-3 days. At 100% confluence, the cells were serum starved with EBM-2 medium for 4 hrs and then treated with 1 μg/ml anti-Ang2 antibodies together with 1 μg/ml of hAng2 for 30 min. Thereafter, the cells were fixed with 4% formaldehyde in PBS at room temperature (RT) for 10 min, permeabilized with 0.1% TRITON™ X-100 (non-ionic polyoxyethylene surfactant) in PBS, blocked with 1% BSA in PBS at RT for 60 min, and incubated with primary antibodies at RT for 1 hr. The primary antibodies for hTie2, FOXO1, and Human Fc were used. The cells were then incubated with secondary antibodies (Invitrogen) in the dark at RT for 1 hr and mounted with VECTASHIELD® mounting medium with DAPI (Vector Labs, antifade mounting media optimized for immunofluorescence applications). Images were taken with a laser scanning confocal microscope (LSM880, Carl Zeiss).\n2C8H11-induced Tie2 clustering and FOXO1 translocation was examined in a time-course study (from 10 min to 240 min). […] 6-4: Inhibition of Vascular Permeability by Humanized Anti-Ang2 Antibodies"}, "[3]": {"system": "choroidal neovascularization (CNV)", "assay": "Laser-induced CNV model, subcutaneous injection: CNV inhibition", "format": "in vivo, mice", "conditions": "25 mg/kg subcutaneous at 1 day; 8 days after laser photocoagulation", "method": "To determine the effect of subcutaneously injected 2C8H11 antibody in CNV inhibition, the subcutaneous administration of 2C8H11 antibody (25 mg/kg) was performed at 1 day after laser photocoagulation. As a control, Fc (25 mg/kg) was administered in a same manner to the mice. Anti-CD31 antibody (1:200, Millipore®) was used for the detection of endothelial cells of CNV, and CD31+CNV volumes of the RPE-choroid-sclera flat mounts were calculated using the MATLAB® Image Processing Toolbox™(Math Works) at 8 days after laser photocoagulation (FIG. 16A)."}, "[4]": {"system": "choroidal neovascularization (CNV)", "assay": "Laser-induced CNV model, intravitreal injection: CNV regression and vascular leakage", "format": "in vivo, mice", "conditions": "5 μg intravitreal at 7 days", "method": "2C8H11 antibody was tested for its ability to inhibit choroidal neovascularization (CNV), the hallmark of wet age-related macular degeneration (AMD) using laser-induced CNV model. After dilation of pupils with 5 mg/ml phenylephrine and 5 mg/ml tropicamide eye drops (Santen Pharmaceutical) and instillation of 0.5% proparacaine hydrochloride eye drops (Alcon) for topical anesthesia, laser photocoagulator (Lumenis Inc.) with a slit lamp delivery system was used with a glass coverslip as a contact lens to visualize the retina. Sufficient laser energy (532 nm wavelength, 250 mW power, 100 ms duration, 50 μm spot size) was delivered in 4 locations for each eye (the 3, 6, 9 and 12 o'clock positions of the posterior pole). Only burns that produced a bubble at the time of laser photocoagulation, indicating the rupture of the Bruch's membrane, were included in this study. Spots containing hemorrhage at the laser site were excluded from the analysis. To recapitulate a clinical situation, 2C8H11 (5 μg) was administered intravitreally to the mice at 7 days after laser photocoagulation (FIG. 13A). As a control or as for comparison, Fc or VEGF-Trap (5 μg each) was administered in the same manner to the mice. To intravitreally administer indicated reagents, ˜1 μl (5 mg/ml) containing 5 μg of each reagent was injected into the vitreal cavity using the Nanoliter 2000 micro-injector (World Precision Instruments) fitted with a glass capillary pipette. CD31+CNV volumes of the retinal pigment epithelium (RPE)-choroid-sclera flat mounts were calculated using the MATLAB® Image Processing Toolbox™ (Math Works, a comprehensive set of reference-standard algorithms and workflow apps for image processing, analysis, visualization, and algorithm development) at 14 days after laser photocoagulation. Anti-CD31 antibody (1:200, Millipore®) was used for the detection of endothelial cells of CNV. […] Combined fluorescein angiography (FA) and indocyanine green angiography (ICGA) enabled us to measure vascular leakage at the neovessels around the laser injury site. Continuous-wave laser modules at 488 nm and 785 nm were used as excitation sources for fluorescein and ICG, respectively. A raster scanning pattern of excitation lasers was achieved by a scanner system consisting of a rotating polygonal mirror (MC-5; Lincoln Laser) and a galvanometer-based scanning mirror (6230H; Cambridge technology), and delivered to the back aperture of an imaging lens. A high numerical aperture (NA) objective lens (PlanApo λ, NA 0.75; Nikon) was used as the imaging lens to provide wide-field fundus fluorescence images. Fluorescence signals detected by photomultiplier tubes (R9110; Hamamatsu Photonics) were digitized by frame grabber and reconstructed to images with size of 512×512 pixels per frame in real time. To visualize late-phase (6 min) FA and ICGA images utilizing the angiography system, 10 mg of fluorescein sodium (Alcon) and 0.15 mg of ICG (Daiichi Pharmaceutical) were administered intraperitoneally and intravenously, respectively. The imaging procedure was performed under systemic anesthesia and pupil dilation to improve the quality of images. Leaky areas from CNV were calculated as the total measured hyperfluorescent areas in FA images divided by the total measured CNV areas in ICGA images using a Java-based imaging software (ImajeJ; National Institutes of Health). […] Thus, the magnitude of the suppression of CNV and vascular leakage was quantitatively indistinguishable between VEGF-Trap and 2C8H11 in the mouse model of laser-induced CNV."}}}
{"molecule": "B1", "values": [{"measurement": "vascular leakage induced by TNF-α (passage of FITC-dextran)", "setting": "[1]", "value": "significantly inhibited"}, {"measurement": "co-localization of antibody with Tie2 receptor", "setting": "[2]; HUVECs, 30 min, anti-human Fc staining", "value": "co-localized with clustered Tie2 receptor at cell-cell contact and endocytosed Tie2 receptor in cytosol"}, {"measurement": "Tie2 translocation/clustering to cell-cell contact", "setting": "[2]; HUVECs, 30 min, antibodies 1 μg/ml with hAng2 1 μg/ml", "value": "induced Tie2 translocation/clustering to cell-cell contact"}, {"measurement": "FOXO1 translocation from nucleus to cytosol", "setting": "[2]; HUVECs, 30 min, compared to serum-starved control", "value": "markedly disappeared in nucleus"}, {"measurement": "Tie2 receptor / Tie2 clustering at cell-cell contact at late time points", "setting": "[2]; time-course, with hAng2, 120 min and 240 min", "value": "sustained even after 240 min treatment"}, {"measurement": "co-localized antibody with Tie2 at cell-cell contact", "setting": "[2]; time-course, with hAng2, up to 240 min", "value": "maintained until 240 min"}, {"measurement": "inhibition of CNV formation compared with Fc (CD31+ CNV volume)", "setting": "[3]", "value": 69.9, "unit": "%"}, {"measurement": "vascular leakage suppression compared with Fc", "setting": "[4]; FA/ICGA, 14 days after laser photocoagulation", "value": 38.3, "unit": "%"}, {"measurement": "CNV regression compared with Fc (CD31+ CNV volume)", "setting": "[4]; measured 14 days after laser photocoagulation", "value": 65.3, "unit": "%"}, {"measurement": "vascular leakage reduction between 6 and 14 days after laser photocoagulation", "setting": "[4]; within-group", "value": 50.0, "unit": "%"}]}
